{"source": "patent US20120058906A1", "about": "(published 2012);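 note: blank spot per well as comparator with Hit at signal to blank ratio of 4 or more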", "binders": {"B1": {"name": "Fab VH6-1_IGHD3-3*01_IGHJ4*01 & V4-3_IGLJ4*01 (Fab, V domains shown)", "VH": "QVQLQQSGPGLVKPSQTLSLTCAISGDSVSSNSAAWNWIRQSPSRGLEWLGRTYYRSKWYNDYAVSVKSRITINPDTSKNQFSLQLNSVTPEDTAVYYCAREYYDFWSGYYTDYFDYWGQGTLVTVSS", "VL": "QPVLTQPTSLSASPGASARLTCTLRSGINLGSYRIFWYQQKPESPPRYLLSYYSDSSKHQGSGVPSRFSGSKDASSNAGILVISGLQSEDEADYYCMIWHSSASFVFGGGTQLIIL", "notes": "Tested as a Fab made in E. coli; also called IGHV6-1*01"}, "B2": {"name": "Fab VH1-46_IGHD6-6*01_IGHJ1*01 & L6_IGKJ1*01 (Fab, V domains shown)", "VH": "QVQLVQSGAEVKKPGASVKVSCKASGYTFTSYYMHWVRQAPGQGLEWMGIINPSGGSTSYAQKFQGRVTMTRDTSTSTVYMELSSLRSEDTAVYYCAREEYSSSSAEYFQHWGQGTLVTVSS", "VL": "not shown", "notes": "Expressed in E. coli as Fab: heavy chain with CH1 plus Flag and His tags from Plasmid A, kappa light chain constant region from Plasmid C; also called Fab No. 1"}, "B3": {"name": "Fab VH5-51_IGHD5-18*01>3_IGHJ4*01_G100R & V3-4_IGLJ1*01 (Fab, V domains shown)", "VH": "EVQLVQSGAEVKKPGESLKISCKGSGYSFTSYWIGWVRQMPGKGLEWMGIIYPGDSDTRYSPSFQGQVTISADKSISTAYLQWSSLKASDTAMYYCARRRYSYGYDYFDYWGQGTLVTVSS", "VL": "QTVVTQEPSFSVSPGGTVTLTCGLSSGSVSTSYYPSWYQQTPGQAPRTLIYSTNTRSSGVPDRFSGSILGNKAALTITGAQADDESDYYCVLYMGSGISYVFGTGTKVTVL", "notes": "It was expressed as a Fab: CH1 with tags from Plasmid A and lambda CL from Plasmid E; also called Fab No. 23"}}, "key": {"[1]": {"molecular_target": "T1, rHuman CD44/Fc Chimera, CF (R&D Systems Cat#3660-CD) (human, UniProt P16070 21-220)", "T1 construct": "Bought Fc chimera; Fc part of the bought chimera not given", "test": "ECL (MSD Multi-Spot) binding assay, antigen spotted on plate; Fab 7.5 nM; blank spot 217"}, "[2]": {"molecular_target": "T2, rHuman Notch-1/Fc Chimera, CF (R&D Systems Cat#3647-TK) (human, UniProt P46531 19-526)", "T2 construct": "Bought Fc chimera; Fc part of the bought chimera not given", "test": "ECL (MSD Multi-Spot) binding assay, antigen spotted on plate; Fab 7.5 nM; blank spot 217"}, "[3]": {"molecular_target": "T3, rHuman P-Cadherin/Fc Chimera, CF (R&D Systems Cat#861-PC) (human, UniProt P22223 108-654)", "T3 construct": "Bought Fc chimera; also called CDH3; Fc part of the bought chimera not given", "test": "ECL (MSD Multi-Spot) binding assay, antigen spotted on plate; Fab 7.5 nM; blank spot 217"}, "[4]": {"molecular_target": "T4, rHuman Erythropoietin R/Fc Chimera, CF (R&D Systems Cat#963-ER) (human, UniProt P19235 25-250)", "T4 construct": "Bought Fc chimera; also called EPO R/Fc; Epo R; Fc part of the bought chimera not given", "T4 sequence": "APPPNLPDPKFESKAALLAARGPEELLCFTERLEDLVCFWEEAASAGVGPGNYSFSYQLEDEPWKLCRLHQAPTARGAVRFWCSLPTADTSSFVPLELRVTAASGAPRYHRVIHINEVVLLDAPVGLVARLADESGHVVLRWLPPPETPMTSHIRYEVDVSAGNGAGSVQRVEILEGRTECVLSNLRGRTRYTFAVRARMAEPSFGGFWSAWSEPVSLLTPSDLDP", "test": "ECL (MSD Multi-Spot) binding assay, antigen spotted on plate; Fab 7.5 nM; blank spot 217"}, "[5]": {"molecular_target": "T5, rHuman HGF R/c-MET/Fc Chimera, CF (R&D Systems Cat#358-MT/CF) (human, UniProt P08581 25-932)", "T5 construct": "Bought Fc chimera; also called HGF R/Fc; Fc part of the bought chimera not given", "test": "MSD ECL titration, Fab 2.3 nM, blank 234"}, "[6]": {"molecular_target": "T6, rHuman Erythropoietin R/Fc Chimera, CF (R&D Systems Cat#963-ER) (human, UniProt P19235 25-250)", "T6 construct": "Bought Fc chimera; also called EPO R/Fc; EPOR; Fc part of the bought chimera not given", "T6 sequence": "T4 sequence", "test": "MSD ECL titration, Fab 2.3 nM, blank 234"}, "[7]": {"molecular_target": "T7, rHuman EGF R/Fc Chimera, CF (R&D Systems Cat#344-ER) (human, UniProt P00533 25-645)", "T7 construct": "Bought Fc chimera; Fc part of the bought chimera not given", "test": "MSD ECL titration, Fab 2.3 nM, blank 234"}, "[8]": {"molecular_target": "T8, Recombinant Human DLL4 (R&D Systems Cat#1506-D4/CF) (human, UniProt Q9NR61 27-524)", "T8 construct": "Bought recombinant protein; also called rHuman DLL4; delta-like protein 4", "test": "MSD ECL titration, Fab 2.3 nM, blank 234"}, "[9]": {"molecular_target": "T9, rHuman Notch-1/Fc Chimera, CF (R&D Systems Cat#3647-TK) (human, UniProt P46531 19-526)", "T9 construct": "Bought Fc chimera; Fc part of the bought chimera not given", "test": "MSD ECL titration, Fab 2.3 nM, blank 234"}, "[10]": {"molecular_target": "T10, rHuman P-Cadherin/Fc Chimera, CF (R&D Systems Cat#861-PC) (human, UniProt P22223 108-654)", "T10 construct": "Bought Fc chimera; Fc part of the bought chimera not given", "test": "MSD ECL titration, Fab 2.3 nM, blank 234"}, "[11]": {"molecular_target": "T11, rHuman ErbB2/Fc Chimera, CF (R&D Systems Cat#1129-ER) (human, UniProt P04626 23-652)", "T11 construct": "Bought Fc chimera; also called HER2/neu; Fc part of the bought chimera not given", "test": "MSD ECL titration, Fab 2.3 nM, blank 234"}, "[12]": {"molecular_target": "T12, rHuman CD44/Fc Chimera, CF (R&D Systems Cat#3660-CD) (human, UniProt P16070 21-220)", "T12 construct": "Bought Fc chimera; Fc part of the bought chimera not given", "test": "MSD ECL titration, Fab 2.3 nM, blank 234"}, "[13]": {"molecular_target": "T13, rHuman IGF-1 sR (insulin-like growth factor-1 soluble receptor), CF (R&D Systems Cat#391-GR) (human, UniProt P08069 31-932)", "T13 construct": "Bought soluble receptor; also called IGF-R1", "test": "MSD ECL titration, Fab 2.3 nM, blank 234"}, "[14]": {"molecular_target": "T14, rHuman P-Cadherin/Fc Chimera, CF (R&D Systems Cat#861-PC) (human, UniProt P22223 108-654)", "T14 construct": "Purchased Fc chimera; not shown: Fc portion of the purchased chimera", "test": "MSD ECL multi-spot plate, antigen immobilized; Fab 1000 nM; blank spot 427"}, "[15]": {"molecular_target": "T15, rHuman EGF R/Fc Chimera, CF (R&D Systems Cat#344-ER) (human, UniProt P00533 25-645)", "T15 construct": "Purchased Fc chimera; not shown: Fc portion of the purchased chimera", "test": "MSD ECL multi-spot plate, antigen immobilized; Fab 1000 nM; blank spot 427"}, "[16]": {"molecular_target": "T16, rHuman IGF-1 sR (IGF-1 sR), CF (R&D Systems Cat#391-GR) (human, UniProt P08069 31-932)", "T16 construct": "Purchased soluble receptor; also called insulin-like growth factor-1 soluble receptor; IGF-R1", "test": "MSD ECL multi-spot plate, antigen immobilized; Fab 1000 nM; blank spot 427"}, "[17]": {"molecular_target": "T17, rHuman CD44/Fc Chimera, CF (R&D Systems Cat#3660-CD) (human, UniProt P16070 21-220)", "T17 construct": "Purchased Fc chimera; not shown: Fc portion of the purchased chimera", "test": "MSD ECL multi-spot plate, antigen immobilized; Fab 1000 nM; blank spot 427"}, "[18]": {"molecular_target": "T18, rHuman Erythropoietin R/Fc Chimera, CF (R&D Systems Cat#963-ER) (human, UniProt P19235 25-250)", "T18 construct": "Purchased Fc chimera; also called EPO R/Fc; Epo R; not shown: Fc portion of the purchased chimera", "T18 sequence": "T4 sequence", "test": "MSD ECL multi-spot plate, antigen immobilized; Fab 1000 nM; blank spot 427"}, "[19]": {"molecular_target": "T19, Recombinant Human DLL4 (R&D Systems Cat#1506-D4/CF) (human, UniProt Q9NR61 27-524)", "T19 construct": "Purchased recombinant protein; also called delta-like protein 4", "test": "MSD ECL multi-spot plate, antigen immobilized; Fab 1000 nM; blank spot 427"}, "[20]": {"molecular_target": "T20, rHuman Notch-1/Fc Chimera, CF (R&D Systems Cat#3647-TK) (human, UniProt P46531 19-526)", "T20 construct": "Purchased Fc chimera; not shown: Fc portion of the purchased chimera", "test": "MSD ECL multi-spot plate, antigen immobilized; Fab 1000 nM; blank spot 427"}}, "data": [{"binder": "B1", "values": [{"measurement": "ECL signal", "setting": "[1]", "result": 444}, {"measurement": "ECL signal", "setting": "[2]", "result": 392}, {"measurement": "ECL signal", "setting": "[3]", "result": 352}, {"measurement": "ECL signal", "setting": "[4]", "result": 443}]}, {"binder": "B2", "values": [{"measurement": "ECL signal", "setting": "[5]", "result": 253}, {"measurement": "ECL signal", "setting": "[6]", "result": 429}, {"measurement": "ECL signal", "setting": "[7]", "result": 289}, {"measurement": "ECL signal", "setting": "[8]", "result": 3060}, {"measurement": "ECL signal", "setting": "[9]", "result": 333}, {"measurement": "ECL signal", "setting": "[10]", "result": 401}, {"measurement": "ECL signal", "setting": "[11]", "result": 291}, {"measurement": "ECL signal", "setting": "[12]", "result": 317}, {"measurement": "ECL signal", "setting": "[13]", "result": 231}]}, {"binder": "B3", "values": [{"measurement": "ECL signal", "setting": "[14]", "result": 762, "unit": "ECL signal"}, {"measurement": "ECL signal", "setting": "[15]", "result": 721, "unit": "ECL signal"}, {"measurement": "ECL signal", "setting": "[16]", "result": 733, "unit": "ECL signal"}, {"measurement": "ECL signal", "setting": "[17]", "result": 559, "unit": "ECL signal"}, {"measurement": "ECL signal", "setting": "[18]", "result": 666, "unit": "ECL signal"}, {"measurement": "ECL signal", "setting": "[19]", "result": 23400, "unit": "ECL signal"}, {"measurement": "ECL signal", "setting": "[20]", "result": 761, "unit": "ECL signal"}]}]}
